Consider one variant from FireProtDB (doi:10.1021/bi00015a036).

The chains are these.
B1: Barstar, P11540 (parent)
chain: MKKAVINGEQIRSISDLHQTLKKELALPEYYGENLDALWDCLTGWVEYPLVLEWRQFEQSKQLTENGAESVLQVFREAKAEGCDITIILS

By Tm is commonly meant the temperature at which the thermal transition is half complete.

The variants in the first series derive from B1. Conditions: Bacillus amyloliquefaciens; pH 7; Thermal; DSC; PIPES 50 mM; reversible: yes (~80%); structure 1BTA; whole UniProt chain shown.
As to C41A C83A, the Tm turned out to be 74 °C and the “unfolding enthalpy (calorimetric)” value stood at 63.4 kcal/mol.

Staying with this series, now noted: Bacillus amyloliquefaciens; pH 10; Thermal; DSC; CAPS 50 mM; reversible: yes (~80%); structure 1BTA; whole UniProt chain shown.
C41A C83A: the Tm is 68.6 °C and the “unfolding enthalpy (calorimetric)” value came to 58.6 kcal/mol.

Still in this series, the particulars now being: Bacillus amyloliquefaciens; pH 10.3; Thermal; DSC; CAPS 50 mM; reversible: yes (~80%); structure 1BTA; whole UniProt chain shown.
As for C41A C83A, the melting temperature (Tm) is 67 °C and the “unfolding enthalpy (calorimetric)” value came out at 57.4 kcal/mol.

Staying with this series, now noted: Bacillus amyloliquefaciens; pH 10.5; Thermal; DSC; CAPS 50 mM; reversible: yes (~80%); structure 1BTA; whole UniProt chain shown.
Turning to C41A C83A, the melting temperature (Tm) was 65.7 °C and the “unfolding enthalpy (calorimetric)” value amounted to 56.2 kcal/mol.
